The source of these data is PMC4148960, “Sox2 acts as a transcriptional repressor in neural stem cells” (BMC Neuroscience, 2014).

This assay addresses T1, GST-fused Grg1 (UniProt Q62440 1-770).
T1 construct: Grg1 (groucho-related gene 1); cloned into pGEX4T1; No purification before mixing with Sox2 is described; the fusion was collected on glutathione-sepharose after the incubation; also called GST-Grg1; source: E. coli BL21, induced with IPTG, bacteria lysed
The assay can be described thus: pull-down; data not shown: amounts of radiolabelled Sox2 pulled down by GST-Grg1 and GST-Grg5 compared. Conditions: partners not purified.

T1 sequence (Q62440 whole entry, the tested form may be a part): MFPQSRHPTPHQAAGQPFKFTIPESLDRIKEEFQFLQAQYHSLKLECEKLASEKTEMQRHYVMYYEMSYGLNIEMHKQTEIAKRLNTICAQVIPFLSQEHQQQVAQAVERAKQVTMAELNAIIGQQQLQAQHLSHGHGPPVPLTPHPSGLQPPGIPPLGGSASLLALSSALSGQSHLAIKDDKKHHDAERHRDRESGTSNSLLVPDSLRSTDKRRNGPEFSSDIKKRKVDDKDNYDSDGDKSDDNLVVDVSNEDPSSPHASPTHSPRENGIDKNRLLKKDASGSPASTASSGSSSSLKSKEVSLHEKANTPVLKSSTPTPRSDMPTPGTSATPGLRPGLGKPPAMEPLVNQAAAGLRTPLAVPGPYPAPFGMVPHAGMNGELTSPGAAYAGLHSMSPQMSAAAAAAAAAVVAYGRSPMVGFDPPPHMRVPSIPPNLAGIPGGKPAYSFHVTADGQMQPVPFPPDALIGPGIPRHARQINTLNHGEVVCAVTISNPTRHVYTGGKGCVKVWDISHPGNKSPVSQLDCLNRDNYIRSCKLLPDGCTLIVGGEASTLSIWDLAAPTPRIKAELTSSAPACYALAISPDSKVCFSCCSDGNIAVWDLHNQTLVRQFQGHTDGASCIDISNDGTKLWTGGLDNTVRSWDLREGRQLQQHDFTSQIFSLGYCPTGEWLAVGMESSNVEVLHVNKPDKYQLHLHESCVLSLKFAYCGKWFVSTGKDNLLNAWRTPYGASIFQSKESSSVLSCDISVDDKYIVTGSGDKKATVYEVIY

B1: radiolabelled Sox2 (in vitro translated) (natural protein)
chain: not shown
modifications: S^35-labelled
notes: Sox2, wild type; also called S^35-labelled Sox2; WT Sox2; source: in vitro translated (TNT T7 kit, Promega)
Turning to B1, the “fold more Sox2 pulled down than by Grg5” value is about 4 fold.
